From the nanobody polyreactivity screen of Harvey et al. (2022) come the findings set out here.

This data set is described as follows: yeast display, Sf9 membrane polyspecificity reagent, FACS + sequencing; frameworks hold sequencing errors. In short, it runs like this:
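Synthetic nanobody libraries on Saccharomyces cerevisiae BJ5465 were galactose-induced for 36–48 hours, stained 1 hour at 4 °C with 10% biotinylated, detergent-solubilized Sf9 membrane reagent and enriched on streptavidin microbeads. FACS then separated cells into low and high (top ~1%) gates by anti-HA (expression) and streptavidin (reagent binding) fluorescence. Genes were colony-PCR amplified, MiSeq 2 × 250 sequenced and CDR-length filtered. A clone's polyreactivity label is that of its gate of origin.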
With “QVQLVESGGGLVQAGGSLRLSCAASVRIFTRYAMGWYRPAPGKERELVAGISYRGGGTYYADSVKGRFTISRDNAKNTVYLQMNSLKPEDTAVYYCATRRYPYSLLYKYWGQGTQVTVSS”, the “polyreactivity (PSR sort gate)” value is recorded as “high polyreactivity”.
“QVQLVESGGGLVQAGGSLRLSCAASGFIFIHYAMGWYRQAPGKERELVAAINRRGSRTYYADSVKGRFTISRDNAKNTVYLQMNSLKPEDSAVYYCAAGSRTEYDYWGQGSQVTVSS”: the “polyreactivity (PSR sort gate)” value was “high polyreactivity”.
With “QVQLVESGGGLVQAGGSLRLSCAASGRIFTRYAMGWYRQAPGKERELVAVITRSGGSTYYADSVKGRFTISRDNAKNTVYLQMNSLKPEDTAVYYCNVDETGVLVAYSFDYWGQGTQVTVSS”, the “polyreactivity (PSR sort gate)” value is “low polyreactivity”.
Consider “QVQLVESGGGLVQAGGSLRLSCAASGRTFLLYAMGWYRQAPGKERELVAAITRGGRTNYADSVKGRFTISRDNAKNTVYLQMNSLKPEDTAVYYCAARYVERHTDYYYWGQGTQVTVSS”, for which the “polyreactivity (PSR sort gate)” value was “low polyreactivity”.
For “QVQLVESGGGLVQARGSLRLSCAASGSTFHQYVMGWYRQAPGKESELVAAINSSGSSTYYADSVKGRFTISRDNAKNTVDLQMNSLKPEDTAVYYCARDGLRNPGGYGFWGQGTQVTVSS”, the “polyreactivity (PSR sort gate)” value is reported as “low polyreactivity”.
To “QVQLVESRGGLVQAGGSLRLSCAASGYTFYGYAMGWYRQAPGKERELVAAISGSGGSTYYADSVKGRFTISRDNAKNTVYLQMNSLKREDTAVYYCNKARYAIYRGDGYDYWGQGTQVTVSS” belongs “high polyreactivity”.
For the sequence “QVQLVESGGGLVQAGGSLRLSCAASGRTFVYNAMGWYRQAPGKERELVAAISAIDGSTYYADSVKGRFTISRDNAKNTVYLQMNSLKPEDTAVYYCAADTQLEASHKDRYEYDYWGQGTQVTVSS”, the “polyreactivity (PSR sort gate)” value is “low polyreactivity”.
To “QVQLVESGGGLVQAGGSLRLSCAASGSTFWGYTMGWYRQAPGKERELVAAITSGGSTNYADSVKGRFTISRDNAKNTVYLQMNSLKPEDTAVYYCNAVYPGRRRYRKWYIYDYWGQGTQVTVSS” belongs “high polyreactivity”; to “QVQLVESGGGLVQAGGSLRLSCAASGSIFYRNVMGWYRQAPGKERELVAAITGSGGITYYADSVKGRFTISRDNAKNTVYLQMNSLKPEDTAVYYCNKTSFLVKLDYWGQGTQVTVSS”, “low polyreactivity”.
“QVQLVESWGGLVQAGGSLRLSCAASGSILYYYVMGWYRQAPGKERELVAAINSGGNTNYADSVKGRFTISRDNAKNTVYLQMNSLKTVDTAVYYCATASGDGVRTDFGNEYDYWGQGTQVNVSS”: the “polyreactivity (PSR sort gate)” value is on record as “low polyreactivity”.
To “QVQLVESGGGLVQAGGSLRFSCAASGSTFIGYDMGWYRQEPGKERELVAAISYSDGTYYAESVKGRFTISRDNAKNTVYLQMNSLNPEDTAVYYCAADSLYYRYDYWGQGTQVTVSS” belongs “low polyreactivity”; to “QVQLVESGGGLVQAGGSLRLSCAASGLIFYYNAMGWYRPAPGKERELVAAISWSGGSTYYADSVKGRFTISRDNAKNTVYLQMNSLKPEDTAVYYCNADYHSVRRDYWGQGTQVTVSS”, “low polyreactivity”.
Turning to “QVQLVESGGGLVQAGGSLRLSCAASGGTFPYNAMGWYRQAAGKERELVAAISSSGTSTYYADSVKRRFTISRDNAKNTVYLQMNSLKPEDTAVYYCNDYFKRYDYWGQGTQVTVSS”, the “polyreactivity (PSR sort gate)” value is given as “high polyreactivity”.
With “QVQLVESGGGLVQAGGSLRLSCAASGRIFAGYAMGWYRQAPGKERELVAAITGTGDRTYYADSVKGRFTISRDNAKNTVYLQMNSLKPEDTAVYYCAAAYGAYYPWGYDYWGQGTQVTVSS” the entry was “low polyreactivity”; with “QVQLVESGGGLVQAGGSLRLSCAATVSTIKTYATMGLYRQAPWTERELVAAITSGSSTNYADSVKGRFTISRDNAKNTVYLQMNSMKPEDTAVYYCAADDYYNWYLGEPGDYWGQGTQVTVSS”, “low polyreactivity”; with “QVQLVESGGGLVPAGGSLRLSCAASGRIFGYYAMGWYRQATGKERELLATIRWRGGSPYYADSVKGRFTISRDNAKNTVYLQMNSLKPEVTAVYYCAATRARRWSSPGQYGYWGQGTQVTVSS”, “high polyreactivity”.
As to “QVQLVESGGGLVQAGGSLRLSCAASGSTFTVNAMGWYRQAPGKERELVAVIRKSGTSTYYADSVKGRFSISRDNAKNTVYLQMNSLKPEDTAVYYCAAGGPSTLDDYWGQGTQVTVSS”, the “polyreactivity (PSR sort gate)” value is listed as “low polyreactivity”.
With “QVQLVESGGGLGQAGGSLRLICAASGFIFRYNAMGWYRQAPGKERELVAGISRSGGRTYYADSVKGRFTISRDNAKNTVYLQMNSLKPEDTAVYYCNAEWVGGAGGYYYWGQGTQVTVSS”, the “polyreactivity (PSR sort gate)” value is recorded as “low polyreactivity”.
To “QVQLVESGGGLVQAGGSLRLSCAASGSTFGGYAMGWYRQAPGKERELVAGITISVGSTYYADSVKGRFTISRDNAKNTVYLQMNSLKPEDTAVYYCAADGLSWYNYWGQGTQVTVSS” belongs “high polyreactivity”; to “QVQLVESGGGLVQAGGSLRLSCAASGITFYYTMGWYRQAPGKERELVATISYDGTSTYYADSVKGRFTISRHNEKNTVYLHMNSLKPEDTAVYYSSAYGTVVTLNDYWGQGTQVTVSS”, “low polyreactivity”.
As for “QVQLVESGGGLVQAGGSLRLTCAASGSTLSTYVMGWYRQAPGKERELVAAITRRGGITYYADSVKGRFTISRDNAKNTVYLQMNSLKPEDTAVYYCAATGVRSKRLASQWKLYYWGQGTQVTVSS”, the “polyreactivity (PSR sort gate)” value is “high polyreactivity”.
Consider “QVQLVESGGGLVQAGGSLRLSCAASGNTFRYYAMGWYRQAPGKERELVATITSGGRTYYADSVKGRFTISRDNAKNTVYLQMNSLKPEDTAVYYCAAVGLDYFVGEYDYWGQGTQLTVSS”, for which the “polyreactivity (PSR sort gate)” value was “low polyreactivity”.
As for “QVQLVESGAGLVQAGGSLRLSCAASGSIFWAYAMGWYRQAPGKERELVAAISRGGTTTYADSVKGRFTISRDNAKYTVYLQMNSLKPEDTAVYYCARQGTIYSYDIVYPRLDYWGQGTQVTVSS”, the “polyreactivity (PSR sort gate)” value is reported as “low polyreactivity”.
As for “QVQLVESGGGLVQAGGSLRLSCAASGSTFRPYAMGWYRQAPGKERELVAAITSTGGSTYYADSVKGRFTISRDNAKNTVYLQMNSLKPEDTAVYYCAAPLVRYAGPYDYWGQGTQVTVSS”, the “polyreactivity (PSR sort gate)” value is reported as “low polyreactivity”.
In the case of “QVQLEESGGGLVQAGGSLRLSCAASGIIFWYYAMGWSRQAPGKERELVAAINSGDSTNYADSVKGRYTISRDNAKNTVYLQMNSLKPEDTAVYYCATVSSYTGGYWGQGTQVTVSS”, the “polyreactivity (PSR sort gate)” value is given as “low polyreactivity”.
For the sequence “QVQLVESGGGLVQAGGSLRLSCAASGRTFLRYAMGWYRQAPGKERELVAAISSRGGSTYYADSVKGRFTISRDNAKNTVYLQMNSLKPEDTAVYYCAARFLHYYPTRGYTYDYWGQGTQVTVSS”, the “polyreactivity (PSR sort gate)” value is “high polyreactivity”.
As to “QLQLVESGGGLVQAGGSLRLSCAASGLIFYDNMAWSRPAPAKEMELVAAISSSGGSTSYADSVKGRFSISRDNAKNTVYLQLISLKPEDTAVYYCAADSYPAYLGFVGFDYWGQGTQVTVSS”, the “polyreactivity (PSR sort gate)” value is “low polyreactivity”.
With “QVQLEESGGGLVQAGGSLRLSCAASGCTLTDYAMGWYIQAPGKERELVAAISSVGSTNYADSVKGRFTISRDNAKNTVYLQMNSLKPEDTAVYYCAVDYGRAVQGDSITYDFNYWGQGTQVNVSS” the entry was “low polyreactivity”; with “QVQLGESGGGLVQAGGSLRLSCAASGRIFRTNAMGWYRQAPGKERELVAAITFSGGGTYYADSVKGRFTISRDNAKNTVYLQMNSLKPEDTAVYYCATDWYYEYYDWGQGTQVTVSS”, “low polyreactivity”; with “QVQLVESGGGLVQAGGSLRLSCAASGFTFYYYAMGWYRQAPGKERELVATISSSGGSTHYADSVKGRFTISRDNAKNTVYLQMNSLKPEDTAVYYCAADSYWDQSHIRDYWGQGTQVTVSS”, “low polyreactivity”.
